Experimental data from patent US20120039878A1 (ELAN PHARMACEUTICALS, published 2012).

B1: murine monoclonal antibody 2A4 (ATCC Accession Number PTA-9662) (antibody, V domains shown)
VH: EVQLVESGGRLVQPKGSLKLSCAASGFTFNTYAMYWIRQAPGKGLEWVARIRSKSNNYAIYYADSVKDRFTIFRDDSQSMLYLQMNNLKTEDTAMYYCVRPYSDSFAYWGQGTLVTVSA
VL: DVVMTQTPLSLPVSLGDQASISCRSSQSLVHSTGNTYLHWYLQKPGQSPKLLIYKVSNRFSGVPDRFSGSGSGTYFTLKISRVEAEDLGVYFCSQSTHVPFTFGGGTKLEIK
notes: Murine IgG2b kappa; Used as hybridoma culture supernatant or as protein A-purified mAb; also called mAb 2A4; 2A4.20.44.77
B2: murine monoclonal antibody 8G9 (antibody, mouse IgG2b, V domains shown)
VH: EVQLVESGGRLVQPKGSLKLSCAASGFTFNTYAMYWIRQAPGKGLEWVARIRSKSNNYAIYYADSVKDRFTIFRDDSQSMLYLQMNNLKTEDTAMYYCVRPYSDSFAYWGQGTLVTVSA
VL: DVVMTQTPLSLPVSLGDQASISCRSSQSLVHSTGNTYLHWYLQKPGQSPKLLIYKVSNRFSGVPDRFSGSGSGTYFTLKISRVEAEDLGVYFCSQSTHVPFTFGGGTKLEIK
notes: Murine IgG2b kappa; also called mAb 8G9; 8G9.3.4.51.22
B3: murine monoclonal antibody 7D8 (ATCC Accession Number PTA-9468) (antibody, mouse IgG2b, V domains shown)
VH: EVQLVESGGRLVQPKGSLKLSCAASGFTFNTYAMYWIRQAPGKGLEWVARIRSKSNNYAIYYADSVKDRFTIFRDDSQSMLYLQMNNLKTEDTAMYYCVRPYSDSFAYWGQGTLVTVSA
VL: DVVMTQTPLSLPVSLGDQASISCRSSLSLVHSTGNTYLHWYLQKPGQSPKLLIYKVSNRFSGVPDRFSGSGSGTYFTLKISRVEAEDLGVYFCSQSTHVPFTFGGGTKLEIK
notes: Murine IgG2b kappa; also called mAb 7D8; 7D8.29.19.47

Experiments:
peptide 66, CGGHEAT = biological target: T1, peptide 66, CGGHEAT; experiment: BIAcore, antibody binding to peptides
T1 peptide: CGGHEAT

peptide 68, CGGHEDTM = biological target: T2, peptide 68, CGGHEDTM; experiment: BIAcore, antibody binding to peptides
T2 peptide: CGGHEDTM

peptide 69, CGGHEDTMA = biological target: T3, peptide 69, CGGHEDTMA; experiment: BIAcore, antibody binding to peptides
T3 peptide: CGGHEDTMA

peptide 70, CGGHEDTMAD = biological target: T4, peptide 70, CGGHEDTMAD; experiment: BIAcore, antibody binding to peptides
T4 peptide: CGGHEDTMAD

[1] = biological target: T5, murine AA amyloid (AA fibrils; amyloid enhancing factor extract, AEF) (mouse); experiment: ELISA, purified mAb on mouse AA amyloid extract (AEF)
T5 construct: also called Mouse AA (AEF); murine AA AEF
T5 sequence (P05366 whole entry, looked up): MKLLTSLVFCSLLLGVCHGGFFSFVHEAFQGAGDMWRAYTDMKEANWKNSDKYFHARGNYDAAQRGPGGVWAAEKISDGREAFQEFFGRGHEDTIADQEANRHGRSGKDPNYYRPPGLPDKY
Experimental: (§1) Protein Mr markers (Std) are, form top to bottom: 176, 119, 75, 49, 39, 25 and 19 kDa. The interaction of the purified mAbs with immunizing peptide p#39, control peptide (p#41), murine and human AA extracts were determined by ELISA as described above.
(§2) In contrast, even at the highest concentration of mAb used (100 nM) there was little detectable binding to the p#41 peptide (FIG. 33—Each point represents the mean±SE, (n=3 at each concentration)). […] The calculated EC50 values for the mAbs binding to mouse AA extract were essentially identical to those obtained when the p#39 peptide was used as the substrate (FIG. 34; Table 5). […] Because the EC50 value for 7D8 mAb binding was the lowest of the 3 antibodies tested, Applicants selected this reagent for in vivo co-localization and imaging studies. The 2 amino acid substitutions in the human SAA sequence with respect to the murine protein affected the EC50 values.

[2] = biological target: T6, human AA amyloid (human renal AA amyloid extract; AA deposits in human tissue) (human); experiment: ELISA, purified mAb on plate-dried human AA amyloid extract
T6 construct: also called human AA amyloid extract; human AA amyloid fibrils
T6 sequence (P0DJI8 19-94, looked up): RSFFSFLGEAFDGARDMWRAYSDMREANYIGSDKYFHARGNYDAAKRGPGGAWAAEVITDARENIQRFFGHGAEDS
Experimental: as §1, §2

[3] = biological target: T7, synthetic Vλ6 Wil fibrils; experiment: SPR (BIAcore), mAb at 6.6 nM over immobilized synthetic Vλ6 Wil fibrils
T7 construct: Fibrillar (aggregated) form, sonicated and amine-coupled to a CM-5 chip (about 16,000 RU); also called immobilized Vλ6 Wil fibrils
Experimental: Surface plasmon resonance was used to establish the binding kinetics of several monoclonal antibodies with Vλ6 Wil fibrils and monomer. […] The deflection (expressed in RU) during the binding phase was similar for mAbs 7D8 and 2A4 but was 50% lower for 8G9.
(§3) Sensograms were run in HBS-EP buffer from BIAcore at 20 μL/min in the Fc1 (Vλ6 Wil fibrils) minus Fc-2 (control) mode. Samples containing mAb or mAb plus peptide inhibitors were injected (70 μL) and the sensograms collected using the delayed-wash function for 200 sec. Data were analyzed in the BIAevalutation software, using the 1:1 Langmuir model with mass-action correction.

[4] = biological target: T5, murine AA amyloid (AA fibrils; amyloid …); experiment: ELISA, hybridoma culture supernatant on murine AA AEF; not corrected for mAb concentration
From the text: The interaction of 2A4, 8G9 and 7D8 mAbs with AA amyloid was initially tested by ELISA and the data, given in FIG. 31, analyzed using SigmaPlot (SPSS Inc.). Each point represents the mean±SE (n=3). A culture supernatant from an irrelevant hybridoma was used as a control (Ctrl Culture Sup). […] (In addition, the immunohistochemical reactivity of the day 1 material was greater than the day 2 samples). […] Because of the low signal and high variability found with the culture supernatants and to determine more accurately the relative binding affinity of the mAbs for murine and human AA amyloid fibrils (as well as to provide material for in vivo biodistribution studies) it was necessary to isolate the mAbs by protein A affinity chromatography. The purity of the isolated mAbs was established SDS-PAGE using 10% acrylamide gels under reducing and non-reducing conditions (FIG. 32). Samples in lanes 1-4 treated with mercaptoethanol, lanes 5-9 without. Gel was stained with Coomassie blue: mAb 8G9, lanes 1 and 6; mAb 2A4, lanes 2 and 7; mAb 7D8, lanes 3 and 8; SP2/0 control supernatant, lanes 4 and 9; blank, lane 5. Protein Mr markers (Std) are, form top to bottom: 176, 119, 75, 49, 39, 25 and 19 kDa. The interaction of the purified mAbs with immunizing peptide p#39, control peptide (p#41), murine and human AA extracts were determined by ELISA as described above.

peptide 65, CGGHADT = biological target: T8, peptide 65, CGGHADT; experiment: BIAcore, antibody binding to peptides
T8 peptide: CGGHADT

peptide 71, CGGHED = biological target: T9, peptide 71, CGGHED; experiment: BIAcore, antibody binding to peptides
T9 peptide: CGGHED

[5] = biological target: B3; experiment: BIAcore competition: peptide p41 in solution with mAb 7D8 (6.6 nM) injected over immobilized Vλ6 Wil fibrils
Experimental: FIG. 28: Binding kinetics of mAb 7D8 to synthetic Vλ6 Wil fibrils in the presence of the p39 and p41 peptides. The interaction of the mAb 7D8 at 6.6 nM with immobilized Vλ6 Will fibrils was measured by BIAcore in the presence of peptides p39 and p41 at 1 or 20 μg/mL.
To assess the specificity of the reaction and ensure that the binding of the mAbs with the fibrils occurred via the classic F(ab)-antigen interaction (as opposed to Fc-mediated binding or non-specific adsorption), binding data were acquired in the presence of the immunogen peptide (p39) at 20 and 1 μg/mL (FIG. 8). […] In the presence of 20 μg/mL p41 peptide, the binding kinetics for mAb 7D8 with Vλ6 Wil fibrils were identical to 7D8 alone.
as §3

Binder	binding result (peptide 66, CGGHEAT)	binding result (peptide 68, CGGHEDTM)	binding result (peptide 69, CGGHEDTMA)	binding result (peptide 70, CGGHEDTMAD)	EC50 [1]	EC50 [2]	Kd [3]	supernatant dilution after which reactivity is absent [4]	binding result (peptide 65, CGGHADT)	binding result (peptide 71, CGGHED)	binding result [5]
B1	no binding	no binding	no binding	no binding	4.09 nM	26.4 nM	~1 nM	~64 fold dilution (1:x)	–	–	–
B2	–	–	–	–	5.64 nM	31.7 nM	~1 nM	~64 fold dilution (1:x)	–	–	–
B3	no binding	no binding	no binding	no binding	1.84 nM	13.3 nM	~1 nM	~64 fold dilution (1:x)	no binding	no binding	–
GHEDTIADQE (also called p41; p#41) [peptide 41, GHEDTIADQE]	–	–	–	–	–	–	–	–	–	–	no binding (tested: 20 µg/mL)
